Assays:
[1] = tested on: day 3 early somite progenitors; experiment: Patterning of early somite progenitors into sclerotome or dermomyotome; type: cell-based, human
Procedure: Day 2 paraxial mesoderm was briefly washed (DMEM/F12) and further differentiated into day 3 early somite/somitomere precursors for 24 hours (1 μM A-83-01+250 nM LDN-193189+1 μM C59+500 nM PD0325901). Subsequently, day 3 early somites were dorsoventrally patterned into either ventral somites/sclerotome (5 nM 21K+1 μM C59) or dorsal somites/dermomyotome (3 μM CHIR99021+150 nM Vismodegib). Sclerotome induction was conducted for 48-72 hours (leading to day 5-6 ventral somite progenitors). […] Media was changed 24 hours for all steps. The Hedgehog agonist 21K, which has been previously described in, e.g., Brunton et al., 2009 the disclosure of which is incorporated herein by reference in its entirety, was commercially synthesized.
Day 3 early somites were briefly washed (DMEM/F12), treated with BMP4+CHIR99021+Vismodegib for 24 hours, washed again (DMEM/F12) and subsequently treated with CHIR99021 (3 μM)+21K (5 nM) for 24 hours. This day 5 dermomyotome was further empirically differentiated towards skeletal muscle-like progeny (using medium containing 2% horse serum, which has been previously described in, e.g., Xu et al. 2013, the disclosure of which is incorporated herein by reference in its entirety) for 12 days, yielding day 17 skeletal muscle-containing populations.
FIG. 11: A) To determine the length of time required for sclerotome differentiation, a qPCR timecourse was performed, encompassing undifferentiated hESCs (D0), day 2 hESC-derived paraxial mesoderm (D2 PXM), day 3 hESC-derived early somite progenitors, and hESC-derived day 3 early somite progenitors that were exposed to sclerotome inductive conditions (5 nM 21K+1 μM C59) for 24 or 48 hours. B) Description of EF1α-BCL2-T2A-GFP lentiviral construct (otherwise known as “C306”; top) and FACS plot of a stably-transduced polyclonal H9 hESC line with near-uniform expression of the BCL2-T2A-GFP transgene (green contour) by comparison to uncolored wild-type hESCs (bottom) (see above methods for details of derivation of the H9 BCL2-T2A-GFP hESC line). C) Higher-magnification picture of BCL2-T2A-GFP hESC-derived sclerotome ectopic bone grafts (originally described above in FIG. 4, panel E), showing that despite the near-ubiquitous expression of GFP throughout the ectopic bone graft (indicating its human provenance), the blood vessels are clearly GFP-negative and therefore presumably derived from the mouse host; scale bar=1 mm. […] L) Description of EF1a-BCL2-T2A-GFP lentiviral construct (otherwise known as “C306”; top) and FACS plot of a stably-transduced polyclonal H9 hESC line with near-uniform expression of the BCL2-T2A-GFP transgene (green contour) by comparison to uncolored wild-type hESCs (bottom) (see the methods described herein for details of derivation of the H9 BCL2-T2A-GFP hESC line). M) Description of UBC-Luciferase-T2A-tdTomato lentiviral construct (top); bioluminescent assay of cultured H9 UBC-Luciferase-T2A-tdTomato hESCs validates that these cells are luciferase-expressing in vitro (bottom).

[2] = tested on: day 5 hematopoietic intermediates; experiment: Day 5-7 continued differentiation of hematopoietic intermediates, factor withholding; type: cell-based, human
Procedure: SOX17^mCherry/+ H9 hESCs (referred to as SOX17-mCherry hESCs throughout this study) were routinely propagated in mTeSR1 (StemCell Technologies)+1% penicillin/streptomycin. They were passaged ˜1:12-1:25 as fine clumps using Accutase (Gibco) onto plates precoated with a Geltrex substratum (Gibco) in mTeSR1 medium supplemented with thiazovivin ([…]; a ROCK inhibitor). After overnight plating, hESCs were washed (DMEM/F12) and differentiated towards posterior PS using BMP4 (15-40 ng/mL, R&D Systems), CHIR99021 ([…]), FGF2 (20 ng/mL, Invitrogen) and PIK90 (100 nM, Calbiochem) for 24 hours, with the optional inclusion of Activin (30 ng/mL, R&D Systems) to induce mid PS. Day 1 mid or posterior PS was subsequently washed (DMEM/F12) and further differentiated using BMP4 (40 ng/mL), GDC-0941 (0.25-2.5 μM, Cellagen Technology), Forskolin (10 μM, Tocris), SB-505124 ([…]), VEGF (100 ng/mL, R&D Systems), XAV939 (1 μM, Tocris) and ascorbic acid-2-phosphate (200 μg/mL, Sigma) for 24 hours. Day 2 cultures were further directed into the definitive hematopoietic lineage/hemogenic precursors by Activin A (15 ng/mL), GDC-0941 (0.25-2.5 μM), VEGF (100 ng/mL), XAV939 (1 μM) and ascorbic acid-2-phosphate (200 μg/mL) for 24 hours. Day 3 definitive hematopoietic progenitors were subsequently differentiated into early Runx1^lowGfi1^low hemogenic intermediates through day 4-5 treatment with BMP4 (50 ng/mL), TTNPB (500 nM), VEGF (100 ng/mL) and XAV939 (1 μM) for 48 hours, supplemented with SB-505124 (2 μM) on day 5. Day 5 populations were then dissociated into single cells, counted and reaggregated in individual wells of a low-adhesion V-bottom or U-bottom 96-well plate (e.g., Thermo Fisher, catalog no. 249952) with ˜15,000-20,000 cells seeded per well. Aggregates were cultured for 48 additional hours until day 7 in BMP4 (50 ng/mL), TTNPB (500 nM), VEGF (100 ng/mL), XAV939 (1 μM), SB-505124 (2 μM), SCF (25-50 ng/mL, R&D Systems), IL6 (10 ng/mL, R&D Systems) and IL6RA (250-1000 ng/mL, R&D Systems). All differentiation was conducted in serum-free CDM2 fully-defined basal media.

Question: For Cc1cnc(-c2cnc(NCCNc3ccc(C#N)cn3)nc2-c2ccc(Cl)cc2Cl)[nH]1 [CHIR99021, 6-[[2-[[4-(2,4-Dichlorophenyl)-5-(5-methyl-1H-imidazol-2-yl)-2-pyrimidinyl]amino]ethyl]amino]-3-pyridinecarbonitrile], which “dorsal somite marker PAX3 and sclerotome fate” value ([1]; CHIR together with Vismodegib) is on record?
Answer: Its value is “sustained dorsal somite marker PAX3 while inhibiting the sclerotome fate”.

Question: For Cc1cccc(-c2[nH]c(C(C)(C)C)nc2-c2ccc3c(c2)OCO3)n1 [SB-505124, 2-[4-(1,3-Benzodioxol-5-yl)-2-(1,1-dimethylethyl)-1H-imidazol-5-yl]-6-methyl-pyridine], which GFI1B expression ([2]; individually withholding the factor from the 8 factors, 48 hours) is on record?
Answer: Its GFI1B expression is “strongly diminished”.

B1: BMP4: BMP family ligand, BMP agonist (protein, UniProt P12644 293-408, looked up)
Bone morphogenetic protein 4: SPKHHSQRARKKNKNCRRHSLYVDFSDVGWNDWIVAPPGYQAFYCHGDCPFPLADHLNSTNHAIVQTLVNSVNSSIPKACCVPTELSAISMLYLDEYDKVVLKNYQEMVVEGCGCR
Question: What does the source list for B1?
Answer: PAX7 expression ([1]; 3 μM CHIR99021+150 nM Vismodegib, 48 hours, BMP4 10 ng/mL): greatly enhances the expression of PAX7; PAX7 induction in central dermomyotome ([1]; CHIR99021+Vismodegib+BMP4, 24 hours): important to induce PAX7 in central dermomyotome; hematopoietic or venous gene expression ([2]; withdrawal of the factor): minimally effected hematopoietic or venous gene expression

From patent publication US10787640B2, “Producing mesodermal cell types and methods of using the same” (The Board of Trustees of the Leland Stanford Junior …, priority 2015, dated 2020)
